Assay results published in patent publication US20190328867A1 (EMORY UNIVERSITY, published 2019).

Biological target: T1, varicella-zoster virus glycoprotein H (varicella-zoster virus, UniProt P09260 18-841, limits assumed)
T1 sequence (looked up): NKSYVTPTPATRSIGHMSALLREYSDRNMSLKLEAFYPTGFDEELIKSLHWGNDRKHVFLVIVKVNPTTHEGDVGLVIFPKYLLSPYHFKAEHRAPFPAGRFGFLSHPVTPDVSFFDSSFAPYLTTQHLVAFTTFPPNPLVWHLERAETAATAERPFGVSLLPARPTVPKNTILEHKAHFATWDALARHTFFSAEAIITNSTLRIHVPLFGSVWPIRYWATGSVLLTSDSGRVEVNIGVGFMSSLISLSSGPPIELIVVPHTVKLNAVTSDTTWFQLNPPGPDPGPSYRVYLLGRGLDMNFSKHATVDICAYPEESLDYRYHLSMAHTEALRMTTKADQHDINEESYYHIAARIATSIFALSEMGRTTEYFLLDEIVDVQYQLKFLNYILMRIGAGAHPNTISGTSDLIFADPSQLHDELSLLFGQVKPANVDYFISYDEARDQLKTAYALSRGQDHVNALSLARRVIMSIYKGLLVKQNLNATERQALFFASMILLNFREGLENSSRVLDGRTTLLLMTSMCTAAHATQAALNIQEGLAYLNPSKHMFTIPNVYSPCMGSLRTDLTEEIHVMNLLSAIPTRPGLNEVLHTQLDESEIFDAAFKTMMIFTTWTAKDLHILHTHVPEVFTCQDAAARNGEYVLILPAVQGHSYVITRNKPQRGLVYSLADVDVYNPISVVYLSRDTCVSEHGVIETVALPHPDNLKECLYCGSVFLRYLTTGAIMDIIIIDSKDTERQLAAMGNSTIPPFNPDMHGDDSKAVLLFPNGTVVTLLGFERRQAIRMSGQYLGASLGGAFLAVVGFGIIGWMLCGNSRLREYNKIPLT
Experiment: cell-based or functional assay

B1: RM-2D6 (antibody, IgG1, V domains shown)
VH: EVQLVESGGGVVQPGRSLRLSCAASGFMFSSYGMHWVRQAPGKGLEWVAAVSHDGTNDLYADSVKGRFSISRDNSKNTLYLQMNSLRAEDTAVYYCAKTSWARFLEWTFDYWGQGTLVTVSS
VL: DIQMTQSPSSLSASVGDRVTITCRASQSINRYLNWYQQKPGKAPKLLIYGASSLQSGVPLRFSGSGSGTDFTLTISSLQPEDFATYYCQQSHSTPTFGQGTRLEIK
Q: B1 was tested. Which “In vitro neutralization IC50 (with complement)” value did it give?
A: 0.03 µg/mL

Q: And the “In vitro neutralization IC50 (without complement)” value?
A: 0.23 µg/mL

B2: 302-1G9 (antibody, IgG1, V domains shown)
VH: QVQLVQSGAEVKKPGASVKVSCEAFGYTFSNYGFTWVRQAPGQGLEWMGWISASNANTKYGQKFRGRVTLTTDTSTSTAYMELRNLGYDDTAMYYCARDRGGSLAMVVGLDHWGQGTLVTVSS
VL: DIQMTQSPTSLSASVGDRVTITCRASQSIGGYLNWYQQNPGKAPKLLIYAASTLQRGVPSRFSGGGSGTDFTLTITSLQPEDFATYYCQQCYSAELTFGGGTKVEIK
Q: Which results are given for B2?
A: In vitro neutralization IC50 (with complement): 0.06 µg/mL; In vitro neutralization IC50 (without complement): 0.09 µg/mL
